The values that follow are results of earlier work, collected in PMC9179313.

Where “and” joins values, the source holds several entries; their conditions need not be identical. Equal values may be shown once.

The target in this data set is ICAM1 (Homo sapiens) (UniProt P05362).
ICAM1 (Homo sapiens), sequence (P05362 28-480): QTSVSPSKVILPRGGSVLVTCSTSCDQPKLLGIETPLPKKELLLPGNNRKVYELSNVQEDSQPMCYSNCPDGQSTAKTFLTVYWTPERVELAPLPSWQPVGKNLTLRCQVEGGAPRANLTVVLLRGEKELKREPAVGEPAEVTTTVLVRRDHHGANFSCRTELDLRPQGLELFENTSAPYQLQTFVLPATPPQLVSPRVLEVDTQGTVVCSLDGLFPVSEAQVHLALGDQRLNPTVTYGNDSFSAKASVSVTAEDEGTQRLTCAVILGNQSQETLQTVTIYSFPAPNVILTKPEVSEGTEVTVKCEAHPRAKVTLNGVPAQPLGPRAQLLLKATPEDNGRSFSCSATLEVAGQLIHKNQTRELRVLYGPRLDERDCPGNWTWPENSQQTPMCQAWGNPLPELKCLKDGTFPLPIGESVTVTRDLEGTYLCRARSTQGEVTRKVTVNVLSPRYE

LFA1 (integrin alpha-L beta-2), sequence (P20701 26-1090): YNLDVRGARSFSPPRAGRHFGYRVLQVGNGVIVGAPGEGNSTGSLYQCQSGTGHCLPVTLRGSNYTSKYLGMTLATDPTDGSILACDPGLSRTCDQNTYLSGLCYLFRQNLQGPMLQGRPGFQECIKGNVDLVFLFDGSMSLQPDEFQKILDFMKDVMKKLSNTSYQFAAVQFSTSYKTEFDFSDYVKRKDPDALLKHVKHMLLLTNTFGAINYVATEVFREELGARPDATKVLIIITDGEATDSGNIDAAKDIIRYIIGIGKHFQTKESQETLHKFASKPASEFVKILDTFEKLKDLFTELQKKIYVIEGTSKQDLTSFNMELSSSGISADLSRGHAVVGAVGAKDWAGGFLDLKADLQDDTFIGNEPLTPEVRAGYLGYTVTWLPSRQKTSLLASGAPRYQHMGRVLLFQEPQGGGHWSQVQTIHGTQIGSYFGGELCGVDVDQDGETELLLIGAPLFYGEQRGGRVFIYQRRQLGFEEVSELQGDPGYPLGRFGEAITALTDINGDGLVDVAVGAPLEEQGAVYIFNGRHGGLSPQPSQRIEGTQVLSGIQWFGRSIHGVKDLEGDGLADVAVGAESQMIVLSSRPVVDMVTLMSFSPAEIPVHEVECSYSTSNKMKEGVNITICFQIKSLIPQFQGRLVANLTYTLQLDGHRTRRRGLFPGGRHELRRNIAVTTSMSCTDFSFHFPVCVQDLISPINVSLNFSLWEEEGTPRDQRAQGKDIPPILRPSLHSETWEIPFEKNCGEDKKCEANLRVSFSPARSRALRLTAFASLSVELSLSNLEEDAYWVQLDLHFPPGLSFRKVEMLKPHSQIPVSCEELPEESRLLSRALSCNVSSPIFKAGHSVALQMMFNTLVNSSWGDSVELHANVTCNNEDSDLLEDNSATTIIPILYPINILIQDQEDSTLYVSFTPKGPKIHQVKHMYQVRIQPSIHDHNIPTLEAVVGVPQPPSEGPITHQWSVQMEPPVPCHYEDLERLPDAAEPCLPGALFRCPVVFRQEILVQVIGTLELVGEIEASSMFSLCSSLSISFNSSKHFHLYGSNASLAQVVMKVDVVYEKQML
LFA1 (integrin alpha-L beta-2), sequence (P05107 23-700, further chain): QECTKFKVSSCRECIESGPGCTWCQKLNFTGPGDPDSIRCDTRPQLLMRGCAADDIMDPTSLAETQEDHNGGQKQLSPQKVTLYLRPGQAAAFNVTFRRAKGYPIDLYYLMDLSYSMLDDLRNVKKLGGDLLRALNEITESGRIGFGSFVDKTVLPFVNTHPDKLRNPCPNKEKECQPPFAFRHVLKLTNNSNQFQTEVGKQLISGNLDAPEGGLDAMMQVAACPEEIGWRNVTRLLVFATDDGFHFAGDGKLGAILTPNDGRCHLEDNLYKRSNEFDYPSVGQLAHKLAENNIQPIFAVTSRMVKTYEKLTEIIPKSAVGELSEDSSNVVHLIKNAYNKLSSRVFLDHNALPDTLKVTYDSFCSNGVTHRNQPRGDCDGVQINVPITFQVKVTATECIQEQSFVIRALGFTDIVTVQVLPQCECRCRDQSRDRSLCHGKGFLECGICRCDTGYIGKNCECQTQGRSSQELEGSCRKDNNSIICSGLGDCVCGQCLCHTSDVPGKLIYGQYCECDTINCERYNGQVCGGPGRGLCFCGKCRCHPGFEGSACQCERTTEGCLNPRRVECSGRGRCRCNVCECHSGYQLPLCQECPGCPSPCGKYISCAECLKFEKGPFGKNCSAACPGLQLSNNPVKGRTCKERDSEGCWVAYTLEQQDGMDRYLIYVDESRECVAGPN

As to “LFA1 (integrin alpha-L beta-2) (from UniProt P20701)”, the Kd (usually the equilibrium constant for the complex coming apart) was 26 µM and 36 µM.
